Results on one sequence are retold here after paper PMC4373775.

Data set [1] deals with T1, ParB_Ala S5A;T32A;T41A;T53A;T110A;T195A;S239A;T254A;T300A;T303A (Mycobacterium tuberculosis H37Rv) (UniProt P9WIJ9).
T1 sequence: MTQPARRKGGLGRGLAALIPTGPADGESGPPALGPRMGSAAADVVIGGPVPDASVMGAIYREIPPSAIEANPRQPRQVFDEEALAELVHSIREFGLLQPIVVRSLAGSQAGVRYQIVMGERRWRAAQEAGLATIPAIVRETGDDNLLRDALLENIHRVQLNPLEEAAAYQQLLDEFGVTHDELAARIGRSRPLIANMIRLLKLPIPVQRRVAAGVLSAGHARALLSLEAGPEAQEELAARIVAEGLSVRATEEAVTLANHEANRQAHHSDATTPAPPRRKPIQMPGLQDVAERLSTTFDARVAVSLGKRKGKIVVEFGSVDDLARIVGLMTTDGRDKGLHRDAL
Put plainly: EMSA. (A gel shift assay detects complexes by their altered migration in electrophoresis.)

Data set [2] deals with T2, ParB_Asp S5D;T32D;T41D;T53D;T110D;T195D;S239D;T254D;T300D;T303D (Mycobacterium tuberculosis H37Rv) (UniProt P9WIJ9).
T2 sequence: T1 sequence with A5D, A32D, A41D, A53D, A110D, A195D, A239D, A254D, A300D, A303D
Put plainly: EMSA.

Substitutions are numbered along the chain they refer to.

As for “GCGAGTGGAGGGACGGCGTGAGTGCTCCGTGGGGCCCGGTGGCCGCTGGACCGTCCGCGCTCGTAAGGTCGGGCCAGGCTTCAACTATCGAACCATTCCAGCGGGAAATGACACCACCGACACCGACGCCTGAGGCCGCGCACAATCCGACGATGAATGTTTCACGTGAAACATCGACAGAATTCGACACCCCCATCGGCGCTGCAGCAGAACGTGCGATGCG (double strand) [parS probe]”, the binding entry is reported as “binds” in data set [1] and “binds more weakly” in data set [2].
